The source of these data is US20230357348A1 (AstraZeneca / MedImmune, published 2023).

Test [1] deals with human glucagon receptor (hGCGR) (human, UniProt P47871 26-477). Nature of the test: cell-based or functional assay.
Test [2] concerns the target human GLP-1 receptor (hGLP-1R) (human, UniProt P43220 24-463). Nature of the test: cell-based or functional assay.

Starred links: 1 amine or outer side, 2 acyl side, 3 side chain; linkers in the order of their positions; H or OH if unused. Non-standard residues stand in square brackets, D forms with d. Groups on a side chain read outwards from the residue. No end group written: not given here. *: point of attachment. C20 diacid = O=C(O)CCCCCCCCCCCCCCCCCCC(=O)*; C18 diacid = O=C(O)CCCCCCCCCCCCCCCCC(=O)*; γGlu = O=C(O)[C@H](CCC(=O)[*:2])N[*:1]; αMeF = C[C@](N)(Cc1ccccc1)C(=O)O; AEEA = NCCOCCOCC(=O)O; Aib = CC(C)(N)C(=O)O

Chain of human glucagon receptor (hGCGR) (P47871 26-477): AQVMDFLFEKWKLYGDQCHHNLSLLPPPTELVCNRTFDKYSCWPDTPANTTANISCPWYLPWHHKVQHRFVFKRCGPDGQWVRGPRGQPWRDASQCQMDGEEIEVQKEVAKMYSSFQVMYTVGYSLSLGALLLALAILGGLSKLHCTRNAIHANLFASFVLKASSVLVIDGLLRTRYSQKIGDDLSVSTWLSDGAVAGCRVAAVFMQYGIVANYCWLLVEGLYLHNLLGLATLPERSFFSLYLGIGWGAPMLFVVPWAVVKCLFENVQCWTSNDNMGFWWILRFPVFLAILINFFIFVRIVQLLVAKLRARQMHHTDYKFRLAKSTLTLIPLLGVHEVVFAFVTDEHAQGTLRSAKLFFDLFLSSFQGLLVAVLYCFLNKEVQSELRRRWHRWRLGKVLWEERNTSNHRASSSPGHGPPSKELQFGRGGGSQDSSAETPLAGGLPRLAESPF

B1: Peptide 150 (peptide)
peptide: H[Aib]QGTFTSDVSK[αMeF]LDSK([AEEA-AEEA-γGlu-C18 diacid])RAQDFVQWLL[Aib]TE-OH
modifications: N-terminus assumed
SMILES: CC(C)C[C@H](NC(=O)[C@H](Cc1c[nH]c2ccccc12)NC(=O)[C@H](CCC(N)=O)NC(=O)[C@@H](NC(=O)[C@H](Cc1ccccc1)NC(=O)[C@H](CC(=O)O)NC(=O)[C@H](CCC(N)=O)NC(=O)[C@H](C)NC(=O)[C@H](CCCNC(=N)N)NC(=O)[C@H](CCCCNC(=O)COCCOCCNC(=O)COCCOCCNC(=O)CC[C@H](NC(=O)CCCCCCCCCCCCCCCCC(=O)O)C(=O)O)NC(=O)[C@H](CO)NC(=O)[C@H](CC(=O)O)NC(=O)[C@H](CC(C)C)NC(=O)[C@](C)(Cc1ccccc1)NC(=O)[C@H](CCCCN)NC(=O)[C@H](CO)NC(=O)[C@@H](NC(=O)[C@H](CC(=O)O)NC(=O)[C@H](CO)NC(=O)[C@@H](NC(=O)[C@H](Cc1ccccc1)NC(=O)[C@@H](NC(=O)CNC(=O)[C@H](CCC(N)=O)NC(=O)C(C)(C)NC(=O)[C@@H](N)Cc1c[nH]cn1)[C@@H](C)O)[C@@H](C)O)C(C)C)C(C)C)C(=O)N[C@@H](CC(C)C)C(=O)NC(C)(C)C(=O)N[C@H](C(=O)N[C@@H](CCC(=O)O)C(=O)O)[C@@H](C)O
As to B1, in test [1], the “hGluc-R EC50 (pM)” value came out at 355 pM. Further, the “hGLP-1R EC50 (pM)” value in test [2] is 166 pM.

B2: Peptide 151 (peptide)
peptide: H[Aib]QGTFTSDVSK[αMeF]LDSK([AEEA-AEEA-γGlu-C20 diacid])RAQDFVRWLL[Aib]TE-OH
modifications: N-terminus assumed
SMILES: CC(C)C[C@H](NC(=O)[C@H](Cc1c[nH]c2ccccc12)NC(=O)[C@H](CCCNC(=N)N)NC(=O)[C@@H](NC(=O)[C@H](Cc1ccccc1)NC(=O)[C@H](CC(=O)O)NC(=O)[C@H](CCC(N)=O)NC(=O)[C@H](C)NC(=O)[C@H](CCCNC(=N)N)NC(=O)[C@H](CCCCNC(=O)COCCOCCNC(=O)COCCOCCNC(=O)CC[C@H](NC(=O)CCCCCCCCCCCCCCCCCCC(=O)O)C(=O)O)NC(=O)[C@H](CO)NC(=O)[C@H](CC(=O)O)NC(=O)[C@H](CC(C)C)NC(=O)[C@](C)(Cc1ccccc1)NC(=O)[C@H](CCCCN)NC(=O)[C@H](CO)NC(=O)[C@@H](NC(=O)[C@H](CC(=O)O)NC(=O)[C@H](CO)NC(=O)[C@@H](NC(=O)[C@H](Cc1ccccc1)NC(=O)[C@@H](NC(=O)CNC(=O)[C@H](CCC(N)=O)NC(=O)C(C)(C)NC(=O)[C@@H](N)Cc1c[nH]cn1)[C@@H](C)O)[C@@H](C)O)C(C)C)C(C)C)C(=O)N[C@@H](CC(C)C)C(=O)NC(C)(C)C(=O)N[C@H](C(=O)N[C@@H](CCC(=O)O)C(=O)O)[C@@H](C)O
Consider B2, for which the “hGluc-R EC50 (pM)” value in test [1] is 178 pM. Further, the “hGLP-1R EC50 (pM)” value in test [2] amounted to 111 pM.

B3: Peptide 152 (peptide)
peptide: H[Aib]QGTFTSDVSK[αMeF]LDSK([AEEA-AEEA-γGlu-C18 diacid])RAQDFVRWLL[Aib]E-OH
modifications: N-terminus assumed
SMILES: CC(C)C[C@H](NC(=O)[C@H](Cc1c[nH]c2ccccc12)NC(=O)[C@H](CCCNC(=N)N)NC(=O)[C@@H](NC(=O)[C@H](Cc1ccccc1)NC(=O)[C@H](CC(=O)O)NC(=O)[C@H](CCC(N)=O)NC(=O)[C@H](C)NC(=O)[C@H](CCCNC(=N)N)NC(=O)[C@H](CCCCNC(=O)COCCOCCNC(=O)COCCOCCNC(=O)CC[C@H](NC(=O)CCCCCCCCCCCCCCCCC(=O)O)C(=O)O)NC(=O)[C@H](CO)NC(=O)[C@H](CC(=O)O)NC(=O)[C@H](CC(C)C)NC(=O)[C@](C)(Cc1ccccc1)NC(=O)[C@H](CCCCN)NC(=O)[C@H](CO)NC(=O)[C@@H](NC(=O)[C@H](CC(=O)O)NC(=O)[C@H](CO)NC(=O)[C@@H](NC(=O)[C@H](Cc1ccccc1)NC(=O)[C@@H](NC(=O)CNC(=O)[C@H](CCC(N)=O)NC(=O)C(C)(C)NC(=O)[C@@H](N)Cc1c[nH]cn1)[C@@H](C)O)[C@@H](C)O)C(C)C)C(C)C)C(=O)N[C@@H](CC(C)C)C(=O)NC(C)(C)C(=O)N[C@@H](CCC(=O)O)C(=O)O
In the case of B3, the “hGluc-R EC50 (pM)” value in test [1] was found to be 20.4 pM. The “hGLP-1R EC50 (pM)” value in test [2] was found to be 11.9 pM.
